# Experimental data as given in publication PMC3956856, “Interaction of Kinase-Interaction-Motif Protein Tyrosine Phosphatases with the Mitogen-Activated Protein Kinase ERK2” (PLoS ONE, 2014).
# “Also recorded” adds a separate entry of the source. Like-named read-outs stand apart in the source and are kept apart here.
# B1: STEP (residues 213-539, mouse) (domain or fragment, UniProt P54830 213-539, looked up)
# chain: MGLQERRGSNVSLTLDMCTPGCNEEGFGYLVSPREESAHEYLLSASRVLRAEELHEKALDPFLLQAEFFEIPMNFVDPKEYDIPGLVRKNRYKTILPNPHSRVRLTSPDPEDPLSSYINANYIRGYSGEEKVYIATQGPIVSTVADFWRMVWQERTPIIVMITNIEEMNEKCTEYWPEEQVVHDGVEITVQKVIHTEDYRLRLISLRRGTEERSLKHYWFTSWPDQKTPDRAPPLLHLVREVEEAAQQEGPHCSPIIVHCSAGIGRTGCFIATSICCQQLRREGVVDILKTTCQLRQDRGGMIQTCEQYQFVHHAMSLYEKQLSLQS
# notes: STEP (PTPN5, striatal enriched protein tyrosine phosphatase), mouse, residues 213-539 (KIM, KIS and catalytic domain); The results loosely call this construct 'full-length STEP'; the construct is residues 213-539; also called STEP_(213-539); PTPN5; source: final SEC
# B2: DUSP16 MAPK binding domain (residues 5-138, human) (domain or fragment, UniProt Q9BY84 5-138, looked up)
# chain: MIGTQIVTERLVALLESGTEKVLLIDSRPFVEYNTSHILEAININCSKLMKRRLQQDKVLITELIQHSAKHKVDIDCSQKVVVYDQSSQDVASLSSDCFLTVLLGKLEKSFNSVHLLAGGFAEFSRCFPGLCEG
# notes: also called DUSP16 MKBD; DUSP16 MKB domain; source: final SEC
# B3: STEPCAT: STEPCAT (residues 244–539), catalytic domain of STEP (protein, UniProt P54829 244-539, looked up, fragment)
# chain: GSNVSLTLDMCTPGCNEEGFGYLMSPREESAREYLLSASRVLQAEELHEKALDPFLLQAEFFEIPMNFVDPKEYDIPGLVRKNRYKTILPNPHSRVCLTSPDPDDPLSSYINANYIRGYGGEEKVYIATQGPIVSTVADFWRMVWQEHTPIIVMITNIEEMNEKCTEYWPEEQVAYDGVEITVQKVIHTEDYRLRLISLKSGTEERGLKHYWFTSWPDQKTPDRAPPLLHLVREVEEAAQQEGPHCAPIIVHCSAGIGRTGCFIATSICCQQLRQEGVVDILKTTCQLRQDRGGMI
# modifications: catalytic domain
# notes: STEPCAT (residues 244–539), catalytic domain of STEP
# What was measured:
# PTPSL (Homo sapiens) = PTPSL (Homo sapiens) (UniProt Q15256); conditions: cited from earlier work
# Chain of PTPSL (Homo sapiens) (Q15256 22-657): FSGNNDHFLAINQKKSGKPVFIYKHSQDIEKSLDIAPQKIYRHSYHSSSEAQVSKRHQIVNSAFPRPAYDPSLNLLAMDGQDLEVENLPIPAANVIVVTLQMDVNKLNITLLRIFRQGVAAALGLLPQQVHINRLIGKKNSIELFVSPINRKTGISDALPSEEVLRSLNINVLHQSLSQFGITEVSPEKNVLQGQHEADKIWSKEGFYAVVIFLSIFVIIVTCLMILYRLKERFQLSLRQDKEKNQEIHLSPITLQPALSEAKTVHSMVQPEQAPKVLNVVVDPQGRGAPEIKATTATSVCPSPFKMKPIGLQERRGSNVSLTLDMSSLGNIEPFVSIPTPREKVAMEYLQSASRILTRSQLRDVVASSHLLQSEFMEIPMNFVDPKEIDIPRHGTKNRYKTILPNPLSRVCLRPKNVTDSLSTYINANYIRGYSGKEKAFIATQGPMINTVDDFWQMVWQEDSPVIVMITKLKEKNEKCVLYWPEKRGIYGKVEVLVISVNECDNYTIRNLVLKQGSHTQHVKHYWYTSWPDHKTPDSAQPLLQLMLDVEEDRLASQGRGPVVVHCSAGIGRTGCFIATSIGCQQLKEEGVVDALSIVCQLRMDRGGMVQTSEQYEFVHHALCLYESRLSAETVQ
# [1] = biological target: DUSP16 MKBD MKBD (Homo sapiens) (UniProt Q9BY84); assay: ITC; conditions: cited from earlier work
# HePTP (Homo sapiens) = HePTP (Homo sapiens) (UniProt P35236); conditions: cited from earlier work
# Chain of HePTP (Homo sapiens) (P35236 whole entry): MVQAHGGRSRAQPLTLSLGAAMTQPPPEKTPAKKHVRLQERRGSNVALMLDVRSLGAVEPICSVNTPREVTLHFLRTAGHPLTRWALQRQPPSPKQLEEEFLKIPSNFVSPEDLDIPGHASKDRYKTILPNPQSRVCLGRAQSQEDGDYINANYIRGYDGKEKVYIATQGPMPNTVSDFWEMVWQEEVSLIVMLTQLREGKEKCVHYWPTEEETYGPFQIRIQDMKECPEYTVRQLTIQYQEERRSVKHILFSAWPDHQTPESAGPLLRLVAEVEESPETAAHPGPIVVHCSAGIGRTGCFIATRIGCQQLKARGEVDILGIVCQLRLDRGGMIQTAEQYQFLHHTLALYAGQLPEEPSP
# p38α [2] = conditions: values previously published, ref [14], [15], [17], [18], cited from earlier work
# Excerpt: We used ITC measurements to determine the binding affinity of STEP and PTPSL for unphosphorylated ERK2 ( Table 1; Figure S1). […] This complex has a ∼3-times lower Kd (tighter binding) than the next tightest complex, ERK2:PTPSL, and a nearly 70-fold greater affinity than the weakest complex, p38α:HePTP [15]. Like STEP, PTPSL binds ERK2 more tightly (∼3.5-fold) than p38α. We also tested peptides that include the kinase specificity s ... || We also generated a chimeric protein in which we fused the PTPSLKIMKIS to STEPCAT (PSchimera; Figure 1A ). […] Thus, they only adopt a single conformation when they bind their respective MAPKs. This is different from the MAPK-binding domains (MKBD) of MAPK phosphatases (MKP; dual specificity phosphatases; DUSPs), [26]. In MKPs, the KIM sequence is part of a stable, folded domain and thus adopts a single, ordered conformation in both the unbound and MAPK-bound states, [28]. […] Our ... || (+ 1 further places)
# ERK2 [3] = biological target: T1, ERK2 (Rattus norvegicus, UniProt P63086); assay: SAXS of resting-state complexes with ERK2; conditions: ERK2:STEP; 24 GASBOR envelopes, DAMAVER; as to Dmax shorter than that of the ERK2:HePTP complex: values in Å; as to Dmax, P(r) function: values in Å; as to Rg smaller than that of the ERK2:HePTP resting-state complex: values in Å
# T1 construct: gene Mapk1; made in house
# ERK2 [4] = biological target: T1, ERK2; assay: SAXS of resting-state complexes with ERK2
# Protocol: To form the ERK2:STEP resting-state complex, purified, unphosphorylated ERK2 was incubated in a 1∶1 molar ratio with purified STEP213-539 at room temperature for 30 minutes and purified using SEC (Superdex 75 26/60 [GE Healthcare]; SAXS buffer). Data for the ERK2:STEP complex were recorded on samples at 0.7, 1.2 and 1.7 mg/ml. All samples were prepared within 48 hours of data acquisition and stored on ice at 4 °C. All samples were filtered ([…], Whatman) immediately prior to data collection. All data was recorded at Beamline X9A at the National Synchrotron Light Source (NSLS) using a Dectris Pilatus 300k (3.4 m distance from the sample for SAXS) and a Photonic Science CCD (0.47 m from the sample for WAXS) detector. 20 μl of sample was continuously flowed through a 1 mm diameter capillary and exposed to an X-ray beam for 30 seconds. Normalization for beam intensity, buffer subtraction and merging of the data from both detectors were carried out using PRIMUS [20]. A Guinier approximation, I(q) = I(0)exp(-q^2Rg ^2/3), where a plot of ln[I(q)] and q^2 is linear for q<1.3/Rg (q is the scattering vector q = 4πsin(θ)/λ; λ, wavelength of X-rays and 2θ is the angle between the incident beam and the scattering X-rays) was performed on at least four independent scattering trials and averaged to determine the radius of gyration (Rg). The linearity of the Guinier region and the intensity at zero scattering angle, I(0), were used to validate that all samples were monodisperse in solution. I(0)/c, where c is concentration, was consistent for all measurements. GNOM [21] was used to determine the pair-distribution function, P(r), for the ERK2:STEP resting-state complex using data collected on the 1.7 mg/ml sample. Twenty-four envelopes were generated using GASBOR [22] and were aligned and averaged using the DAMAVER program suite.
# ERK2 [5] = biological target: T1, ERK2; assay: Isothermal titration calorimetry with ERK2; assay type: binding
# Protocol: The PTPSLKIM peptide (residues 331–348), STEPKIM (residues 213–229) and STEPKIMKIS (residues 213–256) were synthesized, HPLC purified and verified by mass spectrometry (MS) (>98% purity; Biosynthesis, Inc.). Expression and purification of ERK2 and PTPSLKIMKIS (residues 332–373) was carried out as previously described, [15]. PTPSL (residues 332–655, human), STEP (residues 213–539, mouse) and PSChimera (PTPSL residues 332–373 with STEP residues 257–539; gene synthesized by DNA 2.0) were expressed and purified using the protocol previously described in detail for STEPCAT (residues 244–539). The DUSP16 MAPK binding domain (residues 5–138, human) was expressed and purified as previously described. All purified proteins were stored at −80 °C until use at which point they were thawed and exchanged into the appropriate buffer using size exclusion chromatography (SEC; Superdex 75 26/60; GE Healthcare). The final protein buffer was dependent on the experiment performed. For ITC experiments, the final SEC purification was performed in ITC buffer (10 mM Tris pH 7.5, 150 mM NaCl, 0.1 mM EDTA, 0.5 mM TCEP); for SAXS experiments, the final SEC purification was performed in SAXS buffer (50 mM HEPES pH 6.8, 150 mM NaCl, 5 mM dithiothreitol). PTPSLKIM, STEPKIM and STEPKIMKIS peptides were solubilized in ITC buffer prior to ITC measurements.
# ITC experiments were performed at 25 °C using a VP-ITC microcalorimeter (Microcal Inc.). Titrant (10 μL per injection) was injected into the sample cell over a period of 20 seconds with a 250 second interval between titrations to allow for complete equilibration and baseline recovery. 28 injections were delivered during each experiment and the solution in the sample cell was stirred at 307 rpm to ensure rapid mixing. To determine the thermodynamic parameters (ΔH, ΔS, ΔG) and binding constants (K) of the ERK2:PTPSLKIM, ERK2:PTPSL, ERK2:STEP and ERK2:PSChimera interactions, PTPSLKIM, PTPSL, STEP and PSChimera were titrated into ERK2. To determine the same parameters for the ERK2:STEPKIM, ERK2:PTPSLKIMKIS and ERK2:STEPKIMKIS interaction, ERK2 was titrated into the peptides. Titrants were chosen based on the amount of purified protein/peptide available for the experiment. For all titrations the concentrations were slightly varied to ensure independence of the Kd from the protein/peptide concentrations. Data were analyzed with a one-site binding model assuming a binding stoichiometry of 1∶1 using Origin 7.0 software. A nonlinear least-squares algorithm and the titrant and sample cell concentrations were used to fit the heat flow per injection to an equilibrium binding equation, providing values of the stoichiometry (n), change in enthalpy (ΔH) and binding constant (K). All data were repeated in triplicate.
# [6] = biological target: T2, extracellular signal-regulated kinase 2 (ERK2), unphosphorylated (UniProt P63086 1-358); assay: ITC; PTPSLKIM, PTPSL, STEP or PSChimera titrated into ERK2 in the cell; 25 °C; 10 mM Tris pH 7.5, 150 mM NaCl, 0.1 mM EDTA, 0.5 mM TCEP; one-site model; triplicate; conditions: both partners purified
# T2 construct: ERK2 (extracellular signal-regulated kinase 2), unphosphorylated; also called MAPK; source: final SEC (Superdex 75 26/60)
# p38α [7] = conditions: cited from earlier work
# Excerpt: Although there are a few structural differences between ERK2 and p38α in this region (e.g., the activation loop is six residues longer in ERK2), nearly all residues that that we sh ... || The KIM domains of KIM-PTPs are intrinsically disordered in solution [14], [15]. Thus, they only adopt a single conformation when they bind their respective MAPKs. This is different from the MAPK-binding domains (MKBD) of MAPK phosphatases (MKP; dual specificity phosphatases; DUSPs), [26]. In MKPs, the KIM sequence is part of a stable, folded domain and thus adopts a single, ordered conformation in both the unbound and MAPK-bound states, [28]. […] Our ...
# [8] = biological target: T2, extracellular signal-regulated kinase 2 …; assay: ITC; DUSP16 MKBD and ERK2, which was the titrant is not stated; 25 °C; ITC buffer; one-site model; triplicate; conditions: both partners purified
molecule,measurement,setting,value
p38α (from UniProt Q16539),Kd,PTPSL (Homo sapiens),380 nM
same,Kd,[1],900 nM
ERK2 (from UniProt P63086),Kd,HePTP (Homo sapiens),370 nM
B1,Kd,p38α [2],577 ± 71 nM
same,"NSD, structure modeling",ERK2 [3],1.31±0.05
same,"Dmax, P(r) function","ERK2 [4]; ERK2:STEP resting-state complex, GNOM, 1.7 mg/ml sample",95 Å
same,"Rg, P(r) function calculation","ERK2 [4]; ERK2:STEP resting-state complex, GNOM, 1.7 mg/ml sample, Q-range 0.013–0.303 Å^−1",31.1 Å
same,Dmax shorter than that of the ERK2:HePTP complex,ERK2 [4]; ERK2:STEP versus ERK2:HePTP,~15 Å
same,Rg smaller than that of the ERK2:HePTP resting-state complex,ERK2 [4]; ERK2:STEP versus ERK2:HePTP,~3.0 Å
same,Rg and Dmax compared with p38α:STEP complex (in words),ERK2 [4]; ERK2:STEP versus p38α:STEP resting-state complex,highly similar to those determined for the p38α:STEP resting-state complex
same,"χ^2, structure modeling","ERK2 [4]; ERK2:STEP, 24 GASBOR envelopes",2.3±0.2
same,shape of the complex with ERK2 (in words),"ERK2 [4]; resting-state complex, SAXS","compact; also recorded: more compact, globular complexes"
same,relative binding to ERK2 (in words),"ERK2 [5]; ERK2, ITC",tightest binding complex of all MAPK:KIM-PTP complexes tested; also recorded: more strongly than does HePTP
same,tighter binding to ERK2 than the STEPKIM peptide,"ERK2 [5]; ERK2, ITC, versus STEPKIM",11 times
same,"lower Kd (tighter binding) than the next tightest complex, ERK2:PTPSL",ERK2 [5]; ERK2:STEP versus ERK2:PTPSL,~3 times
same,tighter binding to ERK2 than to p38α,"ERK2 [5]; ITC Kd, ERK2 versus p38α",~12 times
same,tighter binding to ERK2 than to p38α (fold difference in affinity),"ERK2 [5]; ITC Kd, ERK2 versus p38α",12 fold
same,affinity for ERK2 compared with p38α (in words),"ERK2 [5]; ITC, ERK2 versus p38α",higher binding affinity for ERK2 than for p38α; also recorded: bind more strongly to ERK2
same,TΔS,"ERK2 [5]; unphosphorylated ERK2, ITC, 25 °C, 10 mM Tris pH 7.5, 150 mM NaCl, 0.1 mM EDTA, 0.5 mM TCEP, average and standard deviation, triplicate",-19.7 ± 2.0 kcal/mol
same,Kd,[6],48 nM
same,dH,[6],-29.5 kcal/mol
B2,interaction with p38α by NMR (in words),"p38α [7]; NMR, MAPK-binding domain, ref [18]",interacts at multiple positions with p38α
same,Kd,p38α [2]; listed as DUSP16MKBD-KIM,890 ± 230 nM
same,Kd,p38α [2],~900 nM
same,weaker binding to ERK2 than to p38α (difference in Kd),"ERK2 [5]; ITC Kd, ERK2 versus p38α",~1.4 fold
same,affinity for ERK2 compared with p38α (in words),"ERK2 [5]; ITC, ERK2 versus p38α",binds these MAPKs with similar affinities; also recorded: binds both MAPKs with similar affinities
same,Kd,[8],1300 nM
same,dH,[8],-4.8 kcal/mol
B3,interaction with p38α by NMR (in words),"p38α [7]; NMR spectroscopy, ref [14]",interacts directly with p38α
